{"source": "patent US20150020221A1", "molecular_target": "PARP1 (endogenous, Hela cell lysate) (human) (UniProt P09874)", "sequence (P09874 2-1014 limits assumed)": "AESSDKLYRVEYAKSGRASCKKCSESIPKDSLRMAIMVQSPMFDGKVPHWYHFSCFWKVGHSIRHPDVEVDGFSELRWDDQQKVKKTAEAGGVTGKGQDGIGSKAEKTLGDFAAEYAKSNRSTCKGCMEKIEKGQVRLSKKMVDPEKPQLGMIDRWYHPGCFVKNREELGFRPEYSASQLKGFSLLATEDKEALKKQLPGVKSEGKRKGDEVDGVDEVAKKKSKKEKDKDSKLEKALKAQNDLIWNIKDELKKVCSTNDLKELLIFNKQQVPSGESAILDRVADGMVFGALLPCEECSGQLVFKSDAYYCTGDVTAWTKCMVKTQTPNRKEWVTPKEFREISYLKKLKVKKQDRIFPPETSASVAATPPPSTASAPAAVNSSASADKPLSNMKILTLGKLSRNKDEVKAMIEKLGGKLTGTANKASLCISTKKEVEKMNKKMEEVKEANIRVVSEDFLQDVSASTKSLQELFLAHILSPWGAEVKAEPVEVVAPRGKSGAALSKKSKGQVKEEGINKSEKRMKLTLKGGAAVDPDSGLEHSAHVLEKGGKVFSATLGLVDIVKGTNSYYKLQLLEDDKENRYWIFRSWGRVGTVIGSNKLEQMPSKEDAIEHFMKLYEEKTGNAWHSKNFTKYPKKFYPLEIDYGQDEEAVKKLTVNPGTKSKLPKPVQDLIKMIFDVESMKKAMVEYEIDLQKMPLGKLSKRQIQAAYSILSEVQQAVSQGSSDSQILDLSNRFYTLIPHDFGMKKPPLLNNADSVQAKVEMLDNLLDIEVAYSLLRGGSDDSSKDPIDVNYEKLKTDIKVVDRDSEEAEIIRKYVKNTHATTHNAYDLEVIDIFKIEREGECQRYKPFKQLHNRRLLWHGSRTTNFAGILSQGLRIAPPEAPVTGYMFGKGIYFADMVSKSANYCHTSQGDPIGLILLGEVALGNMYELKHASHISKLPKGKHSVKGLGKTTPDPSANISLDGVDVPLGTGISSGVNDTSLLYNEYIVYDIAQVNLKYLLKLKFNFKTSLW", "experiment": "scanning densitometry of PARP1 immunoprecipitates from Hela cells (FIG. 4B)", "data": [{"substance": "BAL1 (endogenous, Hela cell lysate) (from UniProt Q8IXQ6 1-854)", "values": [{"measurement": "fold increase co-immunoprecipitated with PARP1 (Dox-treated versus untreated cells)", "result": 4.8, "unit": "fold"}]}]}
